How the values were obtained:
[1] = target: Muc2 from colon of wild-type C57BL/6 mice (mouse (endogenous in C57BL/6 colon)) (UniProt Q80Z19); assay: atomic force microscopy force spectroscopy; C-type lectins attached to the AFM tip via the PEG linker, mucin covalently attached to the glass slide; PBS; 1024 force curves
[2] = target: recombinant human galectin-3 (human) (UniProt P17931); assay: atomic force microscopy force spectroscopy; Gal-3 attached to a slide, mDectin-2 or SIGN-R1 (untreated or PNGase F-treated) on the AFM tips; PBS
recombinant human galectin-3 (human), sequence (P17931 whole entry): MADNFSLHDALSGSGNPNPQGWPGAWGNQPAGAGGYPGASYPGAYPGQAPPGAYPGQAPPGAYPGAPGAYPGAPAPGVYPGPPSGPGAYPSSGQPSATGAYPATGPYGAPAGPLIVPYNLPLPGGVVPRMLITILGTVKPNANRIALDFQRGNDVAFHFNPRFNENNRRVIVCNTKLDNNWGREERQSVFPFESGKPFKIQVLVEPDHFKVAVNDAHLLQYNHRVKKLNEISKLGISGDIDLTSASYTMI

Muc2 from colon of wild-type C57BL/6 mice (mouse (endogenous in C57BL/6 colon)), sequence (Q80Z19 21-4576): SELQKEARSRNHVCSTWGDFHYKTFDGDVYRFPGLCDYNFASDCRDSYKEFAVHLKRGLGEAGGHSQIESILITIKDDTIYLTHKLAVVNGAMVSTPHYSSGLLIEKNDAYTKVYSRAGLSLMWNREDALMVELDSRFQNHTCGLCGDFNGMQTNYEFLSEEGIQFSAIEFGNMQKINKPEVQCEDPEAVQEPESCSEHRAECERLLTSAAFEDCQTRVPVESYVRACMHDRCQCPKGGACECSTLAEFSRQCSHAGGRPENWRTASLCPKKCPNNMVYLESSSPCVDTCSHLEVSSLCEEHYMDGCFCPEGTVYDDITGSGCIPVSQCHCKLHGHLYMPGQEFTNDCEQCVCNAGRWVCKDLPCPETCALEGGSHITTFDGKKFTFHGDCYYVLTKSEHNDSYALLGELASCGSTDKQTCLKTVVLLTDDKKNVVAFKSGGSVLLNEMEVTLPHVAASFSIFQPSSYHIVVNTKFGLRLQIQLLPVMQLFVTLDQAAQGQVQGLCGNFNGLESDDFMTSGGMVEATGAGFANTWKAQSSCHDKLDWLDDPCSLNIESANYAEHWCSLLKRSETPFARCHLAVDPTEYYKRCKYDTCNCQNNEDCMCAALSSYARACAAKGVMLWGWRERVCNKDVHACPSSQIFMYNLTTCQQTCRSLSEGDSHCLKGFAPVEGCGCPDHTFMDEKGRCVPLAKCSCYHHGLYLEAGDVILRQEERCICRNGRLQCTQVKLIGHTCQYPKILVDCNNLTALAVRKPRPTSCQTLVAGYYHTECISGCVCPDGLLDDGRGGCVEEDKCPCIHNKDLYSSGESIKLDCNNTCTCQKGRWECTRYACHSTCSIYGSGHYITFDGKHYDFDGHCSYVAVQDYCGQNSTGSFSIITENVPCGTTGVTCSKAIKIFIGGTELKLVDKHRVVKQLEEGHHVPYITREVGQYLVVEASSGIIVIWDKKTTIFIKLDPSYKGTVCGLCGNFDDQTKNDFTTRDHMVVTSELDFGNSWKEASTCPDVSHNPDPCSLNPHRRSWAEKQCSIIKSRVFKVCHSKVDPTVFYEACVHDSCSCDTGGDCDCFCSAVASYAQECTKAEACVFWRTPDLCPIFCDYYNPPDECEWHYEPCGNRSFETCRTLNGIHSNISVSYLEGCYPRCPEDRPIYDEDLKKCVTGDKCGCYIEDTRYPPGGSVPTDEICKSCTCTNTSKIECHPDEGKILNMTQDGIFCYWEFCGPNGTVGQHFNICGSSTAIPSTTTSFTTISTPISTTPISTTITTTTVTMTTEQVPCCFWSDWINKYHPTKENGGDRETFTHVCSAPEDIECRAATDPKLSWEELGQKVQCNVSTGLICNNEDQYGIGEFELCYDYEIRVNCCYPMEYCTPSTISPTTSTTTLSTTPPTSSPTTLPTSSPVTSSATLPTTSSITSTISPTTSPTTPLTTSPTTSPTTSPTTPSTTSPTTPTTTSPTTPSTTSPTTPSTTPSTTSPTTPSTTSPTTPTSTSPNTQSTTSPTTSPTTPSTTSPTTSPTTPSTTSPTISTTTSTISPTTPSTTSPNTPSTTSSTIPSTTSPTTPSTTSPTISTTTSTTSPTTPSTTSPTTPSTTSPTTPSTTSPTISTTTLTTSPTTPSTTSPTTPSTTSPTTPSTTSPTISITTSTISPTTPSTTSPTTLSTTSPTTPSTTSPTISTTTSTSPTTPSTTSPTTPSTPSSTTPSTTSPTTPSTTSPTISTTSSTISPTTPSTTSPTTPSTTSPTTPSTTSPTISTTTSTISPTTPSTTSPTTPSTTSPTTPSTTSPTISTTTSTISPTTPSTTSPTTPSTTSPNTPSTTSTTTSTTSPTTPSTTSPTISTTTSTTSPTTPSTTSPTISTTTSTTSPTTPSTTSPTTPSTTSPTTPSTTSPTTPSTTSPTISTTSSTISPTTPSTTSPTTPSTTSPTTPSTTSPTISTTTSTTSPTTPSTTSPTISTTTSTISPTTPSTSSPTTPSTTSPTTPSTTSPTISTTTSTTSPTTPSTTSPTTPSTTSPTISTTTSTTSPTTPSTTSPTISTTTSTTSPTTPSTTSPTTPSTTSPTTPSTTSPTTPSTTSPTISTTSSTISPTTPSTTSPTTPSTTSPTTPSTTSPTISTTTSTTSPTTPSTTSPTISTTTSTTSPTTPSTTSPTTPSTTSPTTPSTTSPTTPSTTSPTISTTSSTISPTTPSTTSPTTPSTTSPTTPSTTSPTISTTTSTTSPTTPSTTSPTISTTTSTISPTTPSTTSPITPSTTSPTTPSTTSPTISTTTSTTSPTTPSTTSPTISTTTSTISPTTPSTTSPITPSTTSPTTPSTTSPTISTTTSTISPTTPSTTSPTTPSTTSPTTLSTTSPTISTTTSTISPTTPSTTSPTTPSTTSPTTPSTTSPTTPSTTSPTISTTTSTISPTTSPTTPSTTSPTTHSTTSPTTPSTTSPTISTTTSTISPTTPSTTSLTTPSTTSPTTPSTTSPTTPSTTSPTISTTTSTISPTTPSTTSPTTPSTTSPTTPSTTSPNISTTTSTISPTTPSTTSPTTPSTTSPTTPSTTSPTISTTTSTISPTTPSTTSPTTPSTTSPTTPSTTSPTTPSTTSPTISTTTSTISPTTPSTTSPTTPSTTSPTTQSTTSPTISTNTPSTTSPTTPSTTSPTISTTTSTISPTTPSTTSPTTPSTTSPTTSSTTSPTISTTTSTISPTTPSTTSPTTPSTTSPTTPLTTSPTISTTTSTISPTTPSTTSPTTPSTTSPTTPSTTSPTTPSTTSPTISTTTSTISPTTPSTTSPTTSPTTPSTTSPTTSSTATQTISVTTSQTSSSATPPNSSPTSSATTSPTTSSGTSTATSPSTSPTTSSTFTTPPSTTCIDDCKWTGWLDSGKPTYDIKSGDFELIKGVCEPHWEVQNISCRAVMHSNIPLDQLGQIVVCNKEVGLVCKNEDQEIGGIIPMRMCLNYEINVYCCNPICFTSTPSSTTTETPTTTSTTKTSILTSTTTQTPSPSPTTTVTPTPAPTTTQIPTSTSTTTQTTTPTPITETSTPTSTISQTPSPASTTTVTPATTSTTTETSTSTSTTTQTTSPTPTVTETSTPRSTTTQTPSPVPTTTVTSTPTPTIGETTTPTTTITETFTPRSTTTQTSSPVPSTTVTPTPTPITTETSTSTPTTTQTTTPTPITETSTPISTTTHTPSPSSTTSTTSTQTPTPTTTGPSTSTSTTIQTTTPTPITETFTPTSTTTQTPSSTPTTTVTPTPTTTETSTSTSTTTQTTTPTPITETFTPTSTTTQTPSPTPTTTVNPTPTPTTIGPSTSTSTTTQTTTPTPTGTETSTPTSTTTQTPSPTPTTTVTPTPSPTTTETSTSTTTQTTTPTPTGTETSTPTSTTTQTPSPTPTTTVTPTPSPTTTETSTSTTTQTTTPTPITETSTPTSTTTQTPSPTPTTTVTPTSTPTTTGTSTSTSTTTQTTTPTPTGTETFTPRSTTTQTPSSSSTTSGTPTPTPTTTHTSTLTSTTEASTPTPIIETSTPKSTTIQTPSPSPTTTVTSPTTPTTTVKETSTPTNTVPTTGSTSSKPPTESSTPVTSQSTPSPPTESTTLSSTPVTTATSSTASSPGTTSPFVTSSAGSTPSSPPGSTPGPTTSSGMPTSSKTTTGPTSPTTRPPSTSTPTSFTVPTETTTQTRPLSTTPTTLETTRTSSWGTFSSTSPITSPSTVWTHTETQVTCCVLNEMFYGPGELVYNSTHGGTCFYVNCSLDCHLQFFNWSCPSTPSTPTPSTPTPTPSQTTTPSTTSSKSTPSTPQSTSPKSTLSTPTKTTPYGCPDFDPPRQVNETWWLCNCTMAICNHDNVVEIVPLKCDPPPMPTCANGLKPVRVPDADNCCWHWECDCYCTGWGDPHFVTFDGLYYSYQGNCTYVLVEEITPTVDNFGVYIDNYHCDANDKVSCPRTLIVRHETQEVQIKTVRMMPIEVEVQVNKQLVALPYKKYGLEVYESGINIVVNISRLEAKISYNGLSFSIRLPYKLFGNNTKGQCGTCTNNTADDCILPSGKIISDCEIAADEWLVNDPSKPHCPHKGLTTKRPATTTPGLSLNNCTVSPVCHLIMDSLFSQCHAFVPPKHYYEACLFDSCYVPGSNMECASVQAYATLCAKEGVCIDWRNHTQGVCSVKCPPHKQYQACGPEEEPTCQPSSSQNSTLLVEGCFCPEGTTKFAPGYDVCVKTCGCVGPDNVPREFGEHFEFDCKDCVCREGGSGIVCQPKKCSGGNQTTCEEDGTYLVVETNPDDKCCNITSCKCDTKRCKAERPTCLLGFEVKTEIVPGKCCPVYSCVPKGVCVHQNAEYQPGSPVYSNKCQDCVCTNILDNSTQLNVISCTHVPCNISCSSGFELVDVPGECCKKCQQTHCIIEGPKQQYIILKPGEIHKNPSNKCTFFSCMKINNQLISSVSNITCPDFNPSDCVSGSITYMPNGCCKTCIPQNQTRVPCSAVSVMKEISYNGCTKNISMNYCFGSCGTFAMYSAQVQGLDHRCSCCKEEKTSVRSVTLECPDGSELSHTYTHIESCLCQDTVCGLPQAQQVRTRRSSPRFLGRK

adhesion force of some binding events [1]: 3210 pN | modal value of adhesions [1]: 292 pN | modal value of adhesion [2]: 17.1 pN
Substance: recombinant murine SIGN-R1 (from UniProt Q8CJ91 1-325) (receptor)
